The values below come from patent publication US20240309109A1.

Substitutions are numbered along the chain they refer to.

The test concerns the target human CD38 Fc-fusion aa 45-300 (human) (UniProt P28907). In words: ELISA on CD38 Fc-fusion protein, IgG format. In general terms: An ELISA detects its analyte on a solid surface through an enzyme-linked reagent.

B1: MOR06189 IgG (antibody, part only; not given: Light chain, constant regions, V domains shown, part only)
VH: QVQLVESGGGLVQPGGSLRLSCAASGFTFSSYYMNWVRQAPGKGLEWVSAINMIGNVTNYADSVKGRFTISRDNSKNTLYLQMNSLRAEDTAVYYCARDLPLVYTGFAYWGQGTLVTVSS
B1: the ELISA CD38 Fc-Fusion protein (% Reactivity of MOR03087) was 126%.

B2: MOR06190 IgG (antibody, part only; not given: Light chain, constant regions, V domains shown, part only)
VH: B1 VH with A50Y, M53P, I54N, N56M, V57M
On to B2, for which the ELISA CD38 Fc-Fusion protein (% Reactivity of MOR03087) amounted to 125%.
